The numbers were not newly measured in patent US20230355537A1, “PROMOTING TRAINED IMMUNITY WITH THERAPEUTIC NANOBIOLOGIC COMPOSITIONS” (Icahn School of Medicine at Mount Sinai, priority 2017, published 2023), which cites them from elsewhere.

In one data set the target is T1, PD-1 (Homo sapiens, UniProt Q15116).
T1 construct: A phase II clinical trial in subjects with diffuse large B-cell lymphoma (DLBCL); host or cells: human trial subjects (endogenous PD-1 on their immune cells)

The next data set addresses T2, PD-L1 (Homo sapiens, UniProt Q9NZQ7).
T2 construct: in subjects with advanced-stage NSCLC, melanoma, RCC, or ovarian cancer; host or cells: human trial subjects (endogenous PD-L1 on tumour and immune cells)
The note with it: in vivo.

T1 sequence (Q15116 25-288): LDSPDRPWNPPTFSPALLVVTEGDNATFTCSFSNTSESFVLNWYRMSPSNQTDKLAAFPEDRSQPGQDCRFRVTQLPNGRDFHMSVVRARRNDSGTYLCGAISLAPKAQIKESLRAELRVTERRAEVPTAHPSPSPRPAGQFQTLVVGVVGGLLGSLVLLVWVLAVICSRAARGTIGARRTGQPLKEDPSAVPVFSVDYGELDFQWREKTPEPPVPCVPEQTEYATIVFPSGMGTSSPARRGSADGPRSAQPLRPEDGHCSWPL
T2 sequence (Q9NZQ7 19-290): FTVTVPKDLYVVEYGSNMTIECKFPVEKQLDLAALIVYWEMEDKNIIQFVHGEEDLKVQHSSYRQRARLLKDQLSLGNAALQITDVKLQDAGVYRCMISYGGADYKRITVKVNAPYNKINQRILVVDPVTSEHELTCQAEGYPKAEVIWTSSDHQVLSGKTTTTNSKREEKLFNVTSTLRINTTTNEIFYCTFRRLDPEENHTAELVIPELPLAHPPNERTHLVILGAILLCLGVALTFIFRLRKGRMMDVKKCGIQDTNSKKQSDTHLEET

For “CT-011: humanized IgGl monoclonal antibody against PD-I”, in the data set with PD-1 (DLBCL, preliminary results), the subjects alive is recorded as 82% and the “subjects progression-free at the end of the follow-up period” value is 70%. Moreover, the “activity of natural killer cells” value with PD-1 (in vivo) is “augments”.
Regarding Medi 4736: anti-PD-LI antibody, the clinical activity result with PD-L1 is reported as “durable clinical activity”.
